In paper PMC8113354:

System: FgU2AF23-His;GST-FgRbp1 (Fusarium graminearum PH-1;Fusarium graminearum PH-1)
Assay: pull-down
Details: scale: fold FgU2AF23-His bound vs FgU2AF23 alone

Substance: FgRPS20 exon1-intron1-exon2 RNA
- binding signal: 1.6
